From patent US7204989 (YANG SHENG TANG, dated 2007)

Molecular target: the molecule itself
Assay: SDS-PAGE of thrombin-released pE2; self-association into a homodimer
Experimental: In addition, samples of the GE2 and pE2 peptides were heated at 100° C. for 3 minutes for subsequent analysis (Lanes 2 and 4) by SDS PAGE (A) and Western blotting (B and C). The molecular weight of these products were compared with markers (Lane 6)
The purified preparations of GE2 and pE2 were characterized by SDS PAGE and Western blotting techniques (FIG. 7). […] In addition, samples of the GE2 and pE2 peptides were heated at 100° C. for 3 minutes for subsequent analysis (Lanes 2 and 4) by SDS PAGE (A) and Western blotting (B and C).

B1: pE2 peptide, monomeric form (23 kD) (other)
chain: QLFYSRPVVSANGEPTVKLYTSVENAQQDKGIAIPHDIDLGESRVVIQDYDNQHEQDRPTPSPAPSRPFSVLRANDVLWLSLTAAEYDQSTYGSSTGPVYVSDSVTLVNVATGAQAVARSLDWTKVTLDGRPLSTIQQYSKTFFVLPLRGKLSFWEAGTTKAGYPYNYNTTASDQLLVENAAGHRVAISTYTTSLGAGPVSISAVAVLAPPPR
notes: Monomer obtained by dissociating the dimer; Also used for the self-association rows; also called pE2 monomer; heated pE2
binding result: binds
